The text below walks through data of patent US8546535 (ESPERANCE PHARMACEUTICALS, dated 2013).

The target in experiment [1] is luteinizing hormone-releasing hormone (LHRH) receptor (human) (UniProt P30968). The experiment can be described thus: cell-based or functional assay.
The target of experiment [2] is T1, luteinizing hormone-releasing hormone (LHRH) receptor (human, UniProt P30968 1-328).
T1 sequence (looked up): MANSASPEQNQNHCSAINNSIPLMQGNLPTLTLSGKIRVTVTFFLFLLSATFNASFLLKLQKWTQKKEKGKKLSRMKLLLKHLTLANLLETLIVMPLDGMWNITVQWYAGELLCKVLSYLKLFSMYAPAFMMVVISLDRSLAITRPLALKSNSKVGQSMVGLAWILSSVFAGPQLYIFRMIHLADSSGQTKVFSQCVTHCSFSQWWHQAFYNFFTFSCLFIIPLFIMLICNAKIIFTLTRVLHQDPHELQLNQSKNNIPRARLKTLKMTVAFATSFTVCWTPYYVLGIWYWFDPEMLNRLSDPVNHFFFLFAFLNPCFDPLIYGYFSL
The experiment can be described thus: cell-based or functional assay.

Where “and” joins values, the source holds several entries; their conditions need not be identical. Equal entries are not always repeated.

In turn, LHRH-Phor21 (peptide) returned an IC50, cytotoxicity in TM4 cells (no LHRH receptors; receptor-negative control) in experiment [1] of 10900 nM.
Regarding KFAKFAKKFAKFAKKFAKQHWSYGLRPG [Phor18-LHRH (338613)], in experiment [2], the “IC50, cytotoxicity (MTT) in MCF-7 cells” value was 3400 nM and 1800 nM; the “IC50, cytotoxicity (MTT) in MDA-MB-435S cells, 0.5 hour incubation” value was determined as 1200 nM; the “IC50, cytotoxicity (MTT) in MDA-MB-435S cells, 1 hour incubation” value came to 600 nM; the “IC50, cytotoxicity (MTT) in OVCAR-3 cells, increasing incubation time (1st of 7 values)” value stood at 6700 nM. In experiment [2], the “IC50, cytotoxicity (MTT) in OVCAR-3 cells, increasing incubation time (2nd of 7 values)” value worked out at 5600 nM; the “IC50, cytotoxicity (MTT) in OVCAR-3 cells, increasing incubation time (3rd of 7 values)” value is 5300 nM; the “IC50, cytotoxicity (MTT) in OVCAR-3 cells, increasing incubation time (4th of 7 values)” value amounted to 1600 nM; the “IC50, cytotoxicity (MTT) in OVCAR-3 cells, increasing incubation time (5th of 7 values)” value turned out to be 1500 nM. In experiment [2], the “IC50, cytotoxicity (MTT) in OVCAR-3 cells, increasing incubation time (6th of 7 values)” value was determined as 500 nM; the “IC50, cytotoxicity (MTT) in OVCAR-3 cells, increasing incubation time (7th of 7 values)” value was 500 nM; the “IC50, cytotoxicity (MTT) in SKOV-3 cells, 24 hours incubation (cells without functional LHRH receptors; receptor-negative control)” value is 11500 nM.
